Experimental data: patent US11814435B2, “Therapeutic antibodies and their uses” (PFIZER INC., priority 2015, dated 2023)
Residue numbers refer to the chain shown, from its start. One block for each molecule: values may come before it.

Columns and labels:
[1] = test system: Cyno BCMA; assay: Kinetics and affinity of cyno BCMA/human IgG interactions by SPR (Bio-Rad Proteon XPR36); assay type: binding, cynomolgus; conditions: 37° C.
[2] = molecular target: T1, hBCMA (human BCMA) (Homo sapiens, UniProt Q02223); assay: Kinetics and affinity of hBCMA/human IgG interactions by SPR (Bio-Rad Proteon XPR36); assay type: binding; conditions: 37° C.; for ka Human / kd Human: human BCMA
T1 sequence (Q02223 1-184): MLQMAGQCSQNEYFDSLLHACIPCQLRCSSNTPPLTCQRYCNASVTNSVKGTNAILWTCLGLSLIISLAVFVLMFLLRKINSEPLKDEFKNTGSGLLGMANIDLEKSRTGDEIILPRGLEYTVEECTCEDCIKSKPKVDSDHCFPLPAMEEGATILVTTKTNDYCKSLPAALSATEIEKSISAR
In short: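 IgG amine-coupled (20 μg/mL, acetate pH 4.5), GLC chip. hBCMA 0.08–50 nM, 5-fold steps, low→high, 2 min assoc., 2 h dissoc. after top conc. HBS-T+ + 1 mg/mL BSA, 37° C. or 25° C. Buffer-blank double referencing; 1:1 Langmuir with mass transport fit.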

[3] = test system: cyBCMA; assay: Kinetics and affinity of cyBCMA/human IgG interactions by SPR (Bio-Rad Proteon XPR36); assay type: binding, cynomolgus; conditions: 37° C.

kd Cyno [1]: 0.000448 s⁻¹
ka Human [2]: 4.26e+06 M⁻¹ s⁻¹
kd Human [2]: 0.000139 s⁻¹
B1: A02_Rd4_6 nM_C26: anti-BCMA antibody (antibody, V domains shown)
VH: EVQLLESGGGLVQPGGSLRLSCAASGFTFSSYAMNWVRQAPGKGLEWVSAISDSGGSTYYADSVKGRFTISRDNSKNTLYLQMNSLRAEDTAVYYCARYWPMSLWGQGTLVTVSS
VL: EIVLTQSPGTLSLSPGERATLSCRASQSVSSLYLAWYQQKPGQAPRLLMYDASIRATGIPDRFSGSGSGTDFTLTISRLEPEDFAVYYCQQYQVWPLTFGQGTKVEIK
ka Cyno [1]: 2.21e+06 M⁻¹ s⁻¹

kd Cyno [1]: 0.000324 s⁻¹
ka Human [2]: 3.38e+06 M⁻¹ s⁻¹
kd Human [2]: 0.000182 s⁻¹
B2: A02_Rd4_6 nM_C22: anti-BCMA antibody (antibody, V domains shown)
VH: B1 VH with I51V, S52L, S103T, L104P
VL: B1 VL with L32S
ka Cyno [1]: 1.84e+06 M⁻¹ s⁻¹

kd Cyno [1]: 0.00033 s⁻¹
ka Human [2]: 2.75e+06 M⁻¹ s⁻¹
kd Human [2]: 0.00018 s⁻¹
B3: A02_Rd4_6 nM_C25: anti-BCMA antibody (antibody, V domains shown)
VH: B1 VH with T58R, Y59W, S103T, L104P
VL: B1 VL with L32S, Q93L, V94D
ka Cyno [1]: 1.5e+06 M⁻¹ s⁻¹

ka (1/Ms) huBCMA @ 37° C. [2]: 3.5e+06 M⁻¹ s⁻¹
kd (1/s) huBCMA @37° C. [2]: 0.0018 s⁻¹
kd (1/s) cyBCMA @37° C. [3]: 0.00416 s⁻¹
B4: L3.PY/L1.FF/H3.YA: anti-BCMA antibody (antibody, V domains shown)
VH: EVQLLESGGGLVQPGGSLRLSCAASGFTFGSYAMTWVRQAPGKGLEWVSAISGSGGNTFYADSVKGRFTISRDNSKNTLYLQMNSLRAEDTAVYYCARVSPIYAGMDYWGQGTLVTVSS
VL: EIVLTQSPGTLSLSPGERATLSCRASQSVSSFFLAWYQQKPGQAPRLLIYGASSRATGIPDRFSGSGSGTDFTLTISRLEPEDFAVYYCQHYPYPPSFTFGQGTKVEIK
ka (1/Ms) cyBCMA @ 37° C. [3]: 2.46e+06 M⁻¹ s⁻¹

ka (1/Ms) huBCMA @ 37° C. [2]: 3.68e+06 M⁻¹ s⁻¹
kd (1/s) huBCMA @37° C. [2]: 0.00134 s⁻¹
kd (1/s) cyBCMA @37° C. [3]: 0.00202 s⁻¹
B5: L3.PY/L1.PH/H3.AE: anti-BCMA antibody (antibody, V domains shown)
VH: B4 VH with Y103A, G105E
VL: B4 VL with S31P, F32H, F33Y
ka (1/Ms) cyBCMA @ 37° C. [3]: 2.61e+06 M⁻¹ s⁻¹

ka (1/Ms) huBCMA @ 37° C. [2]: 2.37e+06 M⁻¹ s⁻¹
kd (1/s) huBCMA @37° C. [2]: 0.00116 s⁻¹
kd (1/s) cyBCMA @37° C. [3]: 0.00553 s⁻¹
B6: L3.PY/L1.PH/H2.HA: anti-BCMA antibody (antibody, V domains shown)
VH: B4 VH with G53H, S54A, Y103A, A104S
VL: B4 VL with S31P, F32H, F33Y
ka (1/Ms) cyBCMA @ 37° C. [3]: 1.61e+06 M⁻¹ s⁻¹

ka (1/Ms) huBCMA @ 37° C. [2]: 3.82e+06 M⁻¹ s⁻¹
kd (1/s) huBCMA @37° C. [2]: 0.00263 s⁻¹
kd (1/s) cyBCMA @37° C. [3]: 0.00501 s⁻¹
B7: L3.PY/L1.FF/H3.AE: anti-BCMA antibody (antibody, V domains shown)
VH: B4 VH with Y103A, G105E
VL: B4 VL
ka (1/Ms) cyBCMA @ 37° C. [3]: 2.85e+06 M⁻¹ s⁻¹

ka (1/Ms) huBCMA @ 37° C. [2]: 3.58e+06 M⁻¹ s⁻¹
kd (1/s) huBCMA @37° C. [2]: 0.00213 s⁻¹
kd (1/s) cyBCMA @37° C. [3]: 0.0032 s⁻¹
B8: L3.PY/L1.PH/H3.TAQ: anti-BCMA antibody (antibody, V domains shown)
VH: B4 VH with A97T, Y103A, G105Q
VL: B4 VL with S31P, F32H, F33Y
ka (1/Ms) cyBCMA @ 37° C. [3]: 2.51e+06 M⁻¹ s⁻¹

ka (1/Ms) huBCMA @ 37° C. [2]: 1.96e+06 M⁻¹ s⁻¹
kd (1/s) huBCMA @37° C. [2]: 0.00223 s⁻¹
kd (1/s) cyBCMA @37° C. [3]: 0.00501 s⁻¹
B9: L3.PY/L3.KF/H2.YQ: anti-BCMA antibody (antibody, V domains shown)
VH: B4 VH with G53Y, S54Q, Y103A, A104S
VL: B4 VL with F32S, F33Y, Q90K, H91F
ka (1/Ms) cyBCMA @ 37° C. [3]: 1.41e+06 M⁻¹ s⁻¹

ka (1/Ms) huBCMA @ 37° C. [2]: 3.52e+06 M⁻¹ s⁻¹
kd (1/s) huBCMA @37° C. [2]: 0.00189 s⁻¹
kd (1/s) cyBCMA @37° C. [3]: 0.00376 s⁻¹
B10: L3.PY/L1.FF/H3.TAQ: anti-BCMA antibody (antibody, V domains shown)
VH: B4 VH with A97T, Y103A, G105Q
VL: B4 VL
ka (1/Ms) cyBCMA @ 37° C. [3]: 2.32e+06 M⁻¹ s⁻¹

ka (1/Ms) huBCMA @ 37° C. [2]: 2.14e+06 M⁻¹ s⁻¹
kd (1/s) huBCMA @37° C. [2]: 0.00165 s⁻¹
kd (1/s) cyBCMA @37° C. [3]: 0.00258 s⁻¹
B11: L3.PY/L3.KY/H2.YQ: anti-BCMA antibody (antibody, V domains shown)
VH: B4 VH with G53Y, S54Q, Y103A, A104S
VL: B4 VL with F32S, F33Y, Q90K, H91Y
ka (1/Ms) cyBCMA @ 37° C. [3]: 1.27e+06 M⁻¹ s⁻¹
